Experimental findings from publication PMC7021487 are described below.

This test addresses GFP Pavarotti co-expressed with exogenous Trc (greater pool phosphorylated at S745) (D. melanogaster). Briefly: co-IP; GFP Pavarotti (WT, S745A, or WT with co-expressed Trc) over-expressed in HEK 293 FT cells; lysate in coIP buffer (50 mM Tris pH 7.5, 150 mM NaCl, 1.5% Triton X-100, 1 mM EDTA, 1 mM NaVO3); precipitated with GFP-Trap-M (single chain anti-GFP) beads, washed 3x; blot for endogenous 14-3-3.

“endogenous 14-3-3 ξ (HEK 293 FT cells) (from UniProt P63104 1-245) (natural protein)”: the increase of the co-precipitated interaction against GFP Pavarotti without Trc came to 60%.
